The values that follow come from US20140056908.

In this data set the target is T1, malaria vaccine candidate protein Pfs48 with PR-1a signal peptide, 6xHis tag and KDEL.
T1 chain: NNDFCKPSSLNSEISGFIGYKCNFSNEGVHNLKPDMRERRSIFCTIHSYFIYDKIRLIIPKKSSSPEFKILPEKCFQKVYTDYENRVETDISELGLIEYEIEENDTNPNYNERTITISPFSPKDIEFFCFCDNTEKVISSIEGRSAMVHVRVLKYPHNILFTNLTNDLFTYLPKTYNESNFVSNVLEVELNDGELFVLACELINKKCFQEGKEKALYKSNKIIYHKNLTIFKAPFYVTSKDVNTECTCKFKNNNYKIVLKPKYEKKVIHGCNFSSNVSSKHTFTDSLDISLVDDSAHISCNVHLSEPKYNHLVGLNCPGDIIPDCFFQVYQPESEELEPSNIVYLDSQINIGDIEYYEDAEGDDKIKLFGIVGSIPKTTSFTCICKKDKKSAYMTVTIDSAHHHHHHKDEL

B1: endoglycosidase F from Elizabethkingia meningoseptica (PNGaseF) with PR-1a signal peptide, FLAG tag and KDEL (protein)
chain: APADNTVNIKTFDKVKNAFGDGLSQSAEGTFTFPADVTTVKTIKMFIKNECPNKTCDEWDRYANVYVKNKTTGEWYEIGRFITPYWVGTEKLPRGLEIDVTDFKSLLSGNTELKIYTETCLAKGREYSVDFDIVYGTPDYKYSAVVPVIQYNKSSIDGVPYGKAHTLGLKKNIQLPTNTEKAYLRTTISGWGHAKPYDAGSRGCAEWCFRTHTIAINNANTFQHQLGALGCSANPINNQSPGNWAPDRAGWCPGMAVPTRIDVLNNSLTGSTFSYEYKFQSWTNNGTNGDAFYAISSFVIAKSNTPISAPVVTNDYKDDDDKDEL
Take B1: the “electrophoretic mobility of Pfs48 on Western blot (deglycosylation on co-expression in planta)” value is reported as “the electrophoretic mobility of the glycosylated Pfs48 (control, which was expressed w/o PNGaseF) was different (less mobility) compared to the non-glycosylated form of Pfs48 that was co-expressed with PNGaseF”.
